Earlier results in US6844322B2, “Method for induced lactation” (Monsanto Technology LLC, priority 2000, dated 2005).

Tested on: cows
Conditions: somatotropin included in the induction protocol (Kensinger et al., 1998)

B1: POSILAC® somatotropin: Sustained-release bovine somatotropin, Monsanto (protein, UniProt P01246 27-217, looked up)
Somatotropin: AFPAMSLSGLFANAVLRAQHLHQLAADTFKEFERTYIPEGQRYSIQNTQVAFCFSETIPAPTGKNEAQQKSDLELLRISLLLIQSWLGPLQFLSRVFTNSLVFGTSDRVYEKLKDLEEGILALMRELEDGTPRAGQILKQTYDKFDTNMRSDDALLKNYGLLSCFRKDLHKTETYLRVMKCRRFGEASCAF
modifications: sustained-release formulation
notes: Sustained-release bovine somatotropin, Monsanto
increase in milk yield compared to cows treated with steroids alone: 17%
